In patent US20160298128A1 (University of California, published 2016):
Each block holds one binder with its values, some of them ahead of it.

Legend:
[1] = molecular target: T1, PsbO1, photosystem II subunit (endogenous protein in Arabidopsis protein extracts) (Arabidopsis thaliana, UniProt P23321 86-332); experiment: Co-IP with anti-HA magnetic beads from DEX-3 plant extracts, LC-MS/MS
T1 construct: Endogenous protein; also called PSII subunit PsbO1
Procedure: Four-day-old seedlings of Col-0 and transgenic plants DEX:AtCV-HA-3 (DEX-3) were cultured in MS/2 media containing […] for 4 days and then kept in the dark for additional 2 days. The shoots of plants were harvested, ground in liquid N2 and incubated at 4° C. for 3 h with lysis buffer provided by μMACS HA Isolation Kit (Miltenyl Biotec, San Diego, Calif., USA), containing Protease Inhibitor Cocktail (Sigma-Aldrich, St. Louis, Mo., USA). Co-immunoprecipitation was performed using anti-HA magnetic beads from μMACS HA Isolation Kit (Miltenyl Biotec, San Diego, Calif., USA) and incubating the cell lysis with beads at 4° C. for 2 h. LC-MS/MS analysis was performed in Genome Center of University California, Davis, as described previously (Shipman-Roston et al. 2010, Plant Physiol 152: 1297-1308). Scaffold (version Scaffold 3) was used to validate MS/MS-based peptide and protein identification. Peptide identifications were accepted if they could be established at >80.0% probability. […]
To elucidate mechanism(s) by which AtCV disrupts chloroplasts, we identified AtCV potential interacting proteins using co-immunoprecipitation (Co-IP) and subsequent identification of interactors by LC-MS/MS (Smaczniak et al. 2012, Nat Protoc 7: 2144-2158). […] In order to confirm this interaction, we used bimolecular fluorescence complementation (BiFC).

[2] = molecular target: T1, PsbO1, photosystem II subunit …; experiment: Co-IP with anti-PsbO antibody and Protein A beads, immunoblot with anti-HA

T1 sequence (P23321 86-332 limits assumed): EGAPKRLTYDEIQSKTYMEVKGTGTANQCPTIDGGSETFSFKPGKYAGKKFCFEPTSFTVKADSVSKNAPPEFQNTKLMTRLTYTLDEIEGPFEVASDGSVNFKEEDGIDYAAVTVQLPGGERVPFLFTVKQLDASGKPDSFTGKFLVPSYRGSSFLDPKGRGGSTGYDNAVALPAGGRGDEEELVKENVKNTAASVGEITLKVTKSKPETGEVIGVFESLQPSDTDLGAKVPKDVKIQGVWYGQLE

binding result [1]: binds
B1: AtCV-HA (Arabidopsis thaliana chloroplast vesiculation protein, At2G25625, fused to an HA tag; expressed from DEX:AtCV-HA, line DEX-3) (other)
chain: ASLLKTTSKISCRRTENETEPRKNKCSFVLGVAATVVIGGIQINDVASVEAAVVKSPVEEMAAGVVPPRRWSDKRTCPPWLENSLETIVPENLPRPSAHRRLELAGLAKGDAPPVGVVMTRVNRGGCFSV
notes: Expressed in planta after DEX induction; also called DEX:AtCV-HA-3; full length AtCV; not shown: HA tag from vector pBAV 154

binding result [2]: no binding
B2: AtCVΔC-HA (AtCV without the C-terminus conserved domain, HA tagged; DEX::AtCVΔC-HA plants) (other)
chain: ASLLKTTSKISCRRTENETEPRKNKCSFVLGVAATVVIGGIQINDVASVEAAVVKSPVEEMAAGVVPPR
notes: The making of the construct is not described; not shown: HA tag
